Experiment [1] deals with IL-1α, IL-1β, or both IL-1α and IL-1β. The experiment can be described thus: Functional homogeneity: antigen binding in solution by SEC. Conditions: 120-minute incubation at 37° C. with antigen in equal molar ratio. As for the experimental part:
Because DVD2-Ig binding protein was purified by Protein A chromatography instead of target-specific affinity chromatography, any potential misfolded and/or mismatched VL/VH domains, if present, can be assessed by binding studies against the two different antigens. Such binding analysis was conduced by size exclusion liquid chromatography (SEC). DVD2-Ig binding protein, alone or after a 120-minute incubation period at 37° C. with IL-1α, IL-1β, or both IL-1α and IL-1β, in equal molar ratio, were applied to the column. Each of the antigens was also run alone as controls. […] In the presence of both IL-1α and IL-1β, there was a further and complete shift of the DVD2-Ig binding protein signal, indicating all DVD2-Ig molecules were able to bind both antigens in a uniform fashion.
For orientation: In gel filtration, larger molecules generally elute earlier.

The subject of another experiment is DMM mice. In words: DMM model of osteoarthritis, mechanical allodynia (paw withdrawal threshold). It counts as in vivo, mouse. Conditions: Example 5 (FIG. 12); 6 mg/kg ip twice per week for four weeks; day 28. The method, then:
The DMM model also generates measurable pain in the mice. […] The efficacy of anti-IL-1α/β therapy was studied in the DMM animal model.
The potential of anti-IL-1 therapy to ameliorate pain was tested in the DMM mouse model of OA in terms of mechanical allodynia. Dosing of the combination of IL-1α and IL-1β mAbs was initiated on the day of the surgery and was repeated twice a week for 5 weeks. Animals were treated with PBS vehicle alone, with an IgG isotype control, or with a combination of anti-IL-1α and anti-IL-1β mAbs (at a dose of 6 mg/kg for each mAb). Animals were tested weekly for paw withdrawal threshold. […] This reduction in pain was seen as early as week 1 following treatment (data not shown).
To evaluate the effect of IL-1 therapy in established pain, animals in the IgG control group with established OA and mechanical allodynia were treated on day 35 with the combination of anti-IL-1α and anti-IL-1β monoclonal antibodies and the paw withdrawal threshold was tested 24 hours later (day 36).
The potential of anti-IL-1 therapy to ameliorate pain in the DMM mouse model of OA (see, above) in terms of mechanical allodynia was further evaluated. Dosing of the combination of IL-1α and IL-1β mAbs was initiated on the day of the surgery and was repeated twice a week for 4 weeks. […]

The next experiment concerns male Swiss Webster mice. In words: Joint instability model (JIM) of osteoarthritis, cartilage degeneration histology. It counts as in vivo, mouse. Conditions: Example 3.3.3 (FIG. 4); 21 day study; anti-IL-1β mAb 3, 6, 12 mg/kg; combination 6 mg/kg each. The method, then: The design of study of the in vivo activity of a mIL-1α/β DVD-Ig molecule in the joint instability model (JIM) of osteoarthritis in mice is shown in Table 19. All groups contained 25 mice (n=25), weighing approximately 30 grams (BW=30 g). The study was terminated after 21 days. Two and a half month old, male Swiss Webster mice (25/group/time point), housed 5/cage, were anesthetized with isoflurane anesthesia. Anterior cruciate ligament (ACL) trauma was administered on the right and left knees on day 0 in an attempt to induce OA lesions. Intraperitoneal (ip) treatments with IL-1 inhibitory antibodies IL-1α (9H10) and IL-1β (10G11), alone and in combination, were initiated the day of ACL trauma and continued every 4th day (q4d) for 20 days. The vehicle for the non-treatment control was PBS. Right and left knees were harvested on day 21, and histopathologic alterations were scored and characterized. Data were analyzed using only joints that had proliferative responses indicative of successful instability induction. The proliferative response/instability was scored 0-3, and only unstable joints (scores of 1, 2, or 3) were used in the final analysis. Medial and lateral femoral and tibial cartilage degeneration was scored for severity of cartilage degeneration on a scale 0-5. Four days after the last antibody dose, blood was drawn from all animals from each group for serum harvest. Body weights were recorded weekly. […]
Following 2-3 days in a decalcifying fixative (Surgipath Decalifier, Surgipath Medical Ind., Inc., Richmond Va.), both knee joints were trimmed of extraneous tissue, embedded in the frontal plane and sectioned. […] Slides were examined by a board-certified veterinary pathologist blinded to study group designation, and were scored according to the method below. […]
Medial and lateral femoral and tibial cartilage degeneration were scored for severity of cartilage degeneration using the following system: Depth/extent of chondrocyte and proteoglycan loss with fibrillation: […]
The design of this study was similar to that described above in Example 3.3.1. […] Body weights were recorded weekly. […]

B1: DVD2-Ig: DVD-Ig as DVD1-Ig but with linkers ADAAP (light chain) and AKTTPP (heavy chain) (antibody)
VH: MQLSGLTSEDSAMYFCVRFPTGNDYYAMDYWGQGTSVTVSSAKTTPPQIQLVQSGPELKKPGETVKISCKASGYTFRNYGMNWVKQAPGKDLKRMAWINTYTGESTYADDFKGRFAFSLETSASTAYLQINNLKNEDTATYFCARGIYYYGSSYAMDYWGQGTSVTVSS
VL: PVEADDAATYYCQQNNEDPFTFGSGTKLEIKRADAAPNIQMTQTTSSLSASLGDRVTISCRASQDISNCLNWYQQKPDGTVKLLIYYTSRLHSGVPSRFSGSGSGTDYSLTISNLEQEDIATYFCQQGKTLPYAFGGGTKLEINR
Take B1: in experiment [1], the “shift of the DVD2-Ig binding protein SEC signal in complex with antigen” value is recorded as 100%.

B2: 10G11: mouse anti-mouse IL-1β monoclonal antibody (clone 10G11) from IL-1α/β double KO mice (antibody, V domains shown)
VH: EVQLQQSGPELVKPGTSVKMSCKTSGYTFTSYVMHWVKQKPGQGLEWIGYIIPYNDNTKYNEKFKGKATLTSDKSSSTAYMELSSLTSEDSAVYYCARRNEYYGSSFFDYWGQGTTLTVSS
VL: DIQMTQSPASLSASVGETVTITCRGSGILHNYLVWYQQKQGKSPQLLVYSAKILADGVPSRFSGSGSGTQYSLKINSLQPEDFGSYYCQHFWSTPFTFGSGTKLEIKR
modifications: heavy chain variable domain of 10G11; light chain variable domain of 10G11
notes: mouse anti-mouse IL-1β monoclonal antibody (clone 10G11) from IL-1α/β double KO mice
As for B2, the “paw withdrawal threshold (allodynia)” value in the experiment on DMM mice was “allodynic (painful)”. In addition, in the experiment with male Swiss Webster mice, the “preventing cartilage degradation (medial tibial cartilage degeneration scores)” value is “not effective in preventing cartilage degradation at any dose tested”.
